Source: publication PMC3408336

Experiments:
[1] = biological target: SF162 gp120 S375N (HIV-1 SF162 (subtype B)); test: fluorescence polarisation; fluorescently labelled M48 or M48U1 with purified monomeric recombinant SF162 gp120 (concentrations standardised by ELISA with D7324); LJL Analyst reader; Kd by non-linear regression; results given as fold increase in Kd relative to native SF162 gp120; as in ref. 68
[2] = biological target: SF162 gp120 D474N (HIV-1 SF162 (subtype B)); test: as above
[3] = biological target: SF162 gp120 G335R (HIV-1 SF162 (subtype B)); test: as above
[4] = biological target: SF162 gp120 L494V (HIV-1 SF162 (subtype B)); test: as above
[5] = biological target: CD4 mimetic miniprotein M48U1; test: fluorescence polarization; conditions: read off a plot

Substance	ratio to parent [5]	also measured
CD4 mimetic miniprotein M48U1 (designed binder)	–	fold Kd relative to WT SF162 gp120 [1]: 1 fold; fold Kd relative to WT SF162 gp120 [2]: 1 fold; fold Kd relative to WT SF162 gp120 [3]: 1 fold; fold Kd relative to WT SF162 gp120 [4]: 1 fold
SF162 gp120, wild type (monomeric recombinant) G471R	3.8	–
SF162 gp120, wild type (monomeric recombinant) H105Y	3.8	–
SF162 gp120, wild type (monomeric recombinant) S375R	1900	–
SF162 gp120, wild type (monomeric recombinant) V255M	9.6	–
